Laboratory results reported in patent US20230037682A1.

Molecular target: CD3 peptide
Experiment: SPR (Biacore); 25 °C

Kd: 13.9 nM
Substance: J6MO_SP34 (sp34)
